Experimental data taken from paper PMC10917059, “RhoU forms homo-oligomers to regulate cellular responses” (Journal of Cell Science, 2024).

Molecular target: the molecule itself
Assay: cross-linking; lysates of transfected COS7 cells in 20 mM HEPES pH 7.2, 1% Triton X-100, incubated with DSS (0.25 mM in the methods; increasing concentrations in the results) or DMSO for 30 min at 4°C; anti-Myc blot

B1: Myc–RhoU (natural protein)
chain: not shown
notes: vector a gift from Pontus Aspenström; also called pRK5-myc-RhoU; full-length RhoU; source: COS7, transfected, in lysate; not shown: Myc, N-terminal, kept
- stoichiometry N: 2
